The source of these data is patent US20260069689A1 (Regeneron, published 2026).

The target of assay [1] is T1, SARS-COV-2 RBD extracellular domain expressed with a C-terminal mouse IgG2a Fc (SARS-CoV-2). In words: Biacore SPR, mAb captured on anti-hFc, 25 C. A general note: In SPR one partner is held on a chip, and binding of the other changes the refractive index at the surface.
The target of assay [2] is T1, SARS-COV-2 RBD extracellular domain …. As to the kind of experiment: Biacore SPR, mAb captured on anti-hFc, 37 C.

B1: mAb15161 (antibody, V domains shown)
VH: EVQLVESGGGLVQPGGSLRLSCAASGFTFSSYEMNWVRQAPGKGLEWVSYISSSGSILYYADSVKGRFTASRDNAKNSLYLQMNSLRAEDTGVYYCARREYQLLRPFEFWGQGTLVTVSS
VL: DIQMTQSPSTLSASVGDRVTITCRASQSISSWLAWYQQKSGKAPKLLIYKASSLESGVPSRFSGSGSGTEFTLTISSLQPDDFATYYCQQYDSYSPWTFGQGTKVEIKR
For the molecule B1, in assay [1], the Kd was found to be 0.0119 nM, the koff came out at 1.26e-05 s⁻¹, the kon worked out at 1.06e+06 M⁻¹ s⁻¹ and the t½ was 15.2 h. In assay [2], this molecule had a Kd of 0.0469 nM, a koff of 4.9e-05 s⁻¹, a kon of 1.05e+06 M⁻¹ s⁻¹ and a t½ of 3.93 h.

B2: mAb15159 (antibody, V domains shown)
VH: EVQLVESGGGLVQPGGSLRLSCAASGITVSSNYMTWVRQAPGKGLEWVSLIYSGGSTFYADSVRGRFTISRDNSKNTLYLQMNSLRAEDTAVYYCARDLVVYGMDVWGQGTTVTVSS
VL: DIQLTQSPSSLSASVGDRVTITCRASQGISSYLAWYQQKPGKAPKLLIYAASTLQSGVPSRFSGSGSGTDFTLTISSLQPEDFATYYCQHLNSDPHTFGQGTKLEIKR
As to B2, in assay [1], the affinity, expressed as Kd, was 0.0172 nM; the koff is 1.19e-05 s⁻¹; the kon is 691000 M⁻¹ s⁻¹; the t½ was 16.2 h. In assay [2], the Kd turned out to be 0.135 nM, the koff turned out to be 2.99e-05 s⁻¹, the kon worked out at 220000 M⁻¹ s⁻¹ and the t½ came out at 6.44 h.

B3: mAb15170 (antibody, V domains shown)
VH: EVQLVESGGGLVQPGGSLRLSCAATGITVSSNYMSWVRQAPGKGLEWVSLIYSGGSTFYADSVKGRFTISRHNSKNTLYLQMSSLRAEDTAVYYCARDLVDFGMDVWGQGTTVTVSS
VL: DIQLTQSPSSLSASVGDRVTITCRASQGISNYLAWYQQKPGKAPKLLIYAASTLQSGVPSRFSGSGSGTDFTLTISSLQPEDFGTYYCQQLNSDSPTFGQGTKVEIKR
Take B3: in assay [1], the Kd is no more than 0.0295 nM, the dissociation rate constant (koff) was no more than 1e-05 s⁻¹, the kon stood at 339000 M⁻¹ s⁻¹ and the t½ came to 19.2 h. For the same molecule, in assay [2], binding was put at a Kd of 0.091 nM, the koff worked out at 2.41e-05 s⁻¹, the kon came out at 260000 M⁻¹ s⁻¹ and the t½ turned out to be 8 h.

B4: mAb15158 (antibody, V domains shown)
VH: EVQLVESGGGLVQPGGSLRLSCAASGFSFSSNWMSWVRQAPGKGLEWVGNINQDGSEKYYVDSVEGRFTISRDNAKKSLYLQMNSLRAEDTAVYYCARDLGVLWFGDFVDWGQGALVTVSS
VL: DIQMTQSPSSLSASVGDRVTITCRASQAISNSLAWYQQKPGKAPKLLLYAASTLESGVPSRFSGSGSGTDYTLTISSLQPEDFATYYCLQYYGSPRTFGQGTKVEIKR
On to B4, for which, in assay [1], the Kd was no more than 0.0221 nM, the koff was no more than 1e-05 s⁻¹, the kon was 453000 M⁻¹ s⁻¹ and the t½ worked out at 19.2 h. In assay [2], this molecule registered a Kd of 0.17 nM, a koff of 2.9e-05 s⁻¹, a kon of 171000 M⁻¹ s⁻¹ and a t½ of 6.64 h.

B5: mAb15151 (antibody, V domains shown)
VH: QVQLVESGGGVVQPGRSLRLSCAASGFVFNSYGMHWVRQAPGKGLEWVAVLWYEGSKNYYADSVKGRFTISRDNSKNTLYLQMNSLRAEDTAVYYCARHGSGSFFGYYLDYWGQGTLVTVSS
VL: DIQMTQSPSSLSASVGDRVTITCRASHNINDFLNWYQQKPGKAPRLLIYAASSLQSGVPSRFSGSGSGTDFTLTISSLQPEDFATYYCQESYTTPPTFGQGTKLEIKR
In assay [1], B5 showed a dissociation constant Kd of 0.00338 nM, a dissociation rate constant (koff) of 3.12e-05 s⁻¹, a kon of 9.24e+06 M⁻¹ s⁻¹ and a t½ of 6.16 h. In assay [2], this molecule gave a Kd of 0.85 nM, a koff of 0.0031 s⁻¹, a kon of 3.7e+06 M⁻¹ s⁻¹ and a t½ of 0.0617 h.

B6: mAb15160 (antibody, V domains shown)
VH: EVQLVESGGGLVQPGGSLRLSCSASGFTFSRYAMYWVRQAPGKGLEYVSAISSDGGSTYDADSVKGRFTISRANSKNTLYLQMSSLRAEDTAVYYCVKGLRELLYYYYGMDVWGQGTTVTVSS
VL: DIQMTQSPSSLSASVGDRVTITCRAGQSISSFLNWYQQKPGKAPKLLIYAASSLQSGVPSRFSGSGSGTDFTLTISSLQPEDFATYYCQQSYITPFTFGPGTKVDIKR
With B6, in assay [1], the dissociation constant (Kd) stood at 0.0406 nM, the koff was found to be 1.05e-05 s⁻¹, the kon stood at 258000 M⁻¹ s⁻¹ and the t½ was determined as 18.4 h. Moreover, in assay [2], the Kd amounted to 0.181 nM, the koff is 7.9e-05 s⁻¹, the association rate constant (kon) is 436000 M⁻¹ s⁻¹ and the t½ came out at 2.44 h.

B7: mAb15162 (antibody, V domains shown)
VH: EVQLVETGGGLIQPGGSLRLSCAASEFIVSRNYMSWVRQAPGKGLEWVSLIYSGGSTYYADSVKGRFTISRDNSKNILYLQMNSLRAEDTAVYYCARDRGGISDYWGQGTLVTVSS
VL: DIQMTQSPSSLSASVGDRVTITCQASQDINKYLNWFQQKPGKAPKLLIYDASNLETGVPSRFSGSGSGTDFTFTISSLQPEDIATYYCQQYDNLPRTFGQGTKLEIKR
Take B7: in assay [1], the Kd stood at 0.179 nM, the off-rate constant (koff) was 0.00023 s⁻¹, the kon is 1.29e+06 M⁻¹ s⁻¹ and the t½ was determined as 0.837 h. Moreover, in assay [2], binding was put at a Kd of 0.5 nM, the koff was determined as 0.000101 s⁻¹, the kon was determined as 200000 M⁻¹ s⁻¹ and the t½ came out at 1.91 h.

B8: mAb15164 (antibody, V domains shown)
VH: EVQLVESGGGLVQPGGSLRLSCAASGFAVSSNYMTWVRQAPGKGLEWVATIYSGDSTYYADSVKGRFTISRHNSKNTLSLQMNSLRADDTAIYYCARLSGVLSGTYNGAFDIWGQGTMVTVSS
VL: QSALTQPASVSGSPGQSITISCTGTSSDFGNYNIVSWYQQHPGQAPKVMIYEGNKRPSGVSNRFSGSKSGHTASLTISGLQAEDEADYYCSSYAGSSTWVFGGGTKLTVLG
As for B8, in assay [1], binding was put at a Kd of 0.0569 nM, the koff is 2.12e-05 s⁻¹, the kon is 372000 M⁻¹ s⁻¹ and the t½ stood at 9.09 h. Further, in assay [2], binding was put at a Kd of 0.0518 nM, the koff worked out at 9.4e-05 s⁻¹, the kon amounted to 1.82e+06 M⁻¹ s⁻¹ and the t½ is 2.05 h.

B9: mAb15166 (antibody, V domains shown)
VH: EVQLVESGGGLVQPGGSLRLSCAASGFTVTSNYMSWVRQAPGKGLEWVSAIYSGESTYYADSVKGRFTISRDSSKNTLYLQMNSLRVEDTAVYYCASIHDYSNYVGGFDPWGQGTLVTVSS
VL: QSALTQPASVSGSPGQSITISCTGPSSDFGSYNLVSWYQQHPGKAPKLMIYEGTKRPSGVSNRFSGSKSGNTASLTISGLQAEDEADYYCSSYAGSSTWVFGGGTKLTVLG
In assay [1], B9 registered a Kd of 0.016 nM, a koff of 1.62e-05 s⁻¹, an on-rate (kon) of 1.02e+06 M⁻¹ s⁻¹ and a t½ of 11.9 h. In assay [2], this molecule had a Kd of 0.126 nM, a dissociation rate constant (koff) of 9.8e-05 s⁻¹, a kon of 781000 M⁻¹ s⁻¹ and a t½ of 1.97 h.

B10: mAb15165 (antibody, V domains shown)
VH: EVQLVESGGGLVQPGGSLRLSCAASGFTVSSNYMSWVRQAPGKGLEWVSAIYSGDSTYYADSVKGRFTISKDNSKNTLYLQMNSLRGEDTAVYYCARLGGALQAYDGAFDYWGQGTLATVSS
VL: QSALTQPASVSGSPGQSITISCTGTSSDFGSYNLVSWYQQHPGKAPKLMIYEGNKRPSGVSIRFSGSKSGNTASLTISGLQAEDEADYYCSSYAGSSTWVFGGGTKLTVLG
In assay [1], B10 returned a Kd of 0.129 nM, an association rate constant (kon) of 301000 M⁻¹ s⁻¹ and a t½ of 4.96 h. In assay [2], this molecule showed a Kd of 0.45 nM, a koff of 4.55e-05 s⁻¹, an on-rate (kon) of 100000 M⁻¹ s⁻¹ and a t½ of 4.23 h.

B11: mAb15163 (antibody, V domains shown)
VH: EVQLVETGGGLIQPGESLRLSCAASGFIVSTNYMNWVRQAPGKGLEWVSVIYRGGSTYYADSVKGRFTISRDNSKNTLFLQMNSLRAEDTAVYYCARGHEDFDYDTPASGAFDIWGQGTMVTVSS
VL: QSALTQPPSASGSPGQSVTISCTGTSSDVGGHNYVSWYQQHPGKAPKVMIYEVSKRPSGVPDRFSGSKSGNTASLTVSGLQAEDEADYYCSSYAGSNKFVFGTGTKVTVLG
In assay [1], B11 had a Kd of no more than 0.0108 nM, a koff of no more than 1e-05 s⁻¹, a kon of 930000 M⁻¹ s⁻¹ and a t½ of 19.2 h. Also, in assay [2], the Kd was found to be 0.0601 nM, the koff was determined as 2.5e-05 s⁻¹, the kon is 416000 M⁻¹ s⁻¹ and the t½ was determined as 7.7 h.

In general, Kd refers to the equilibrium constant for the complex coming apart. For orientation: koff means a measure of how fast the partners let go of each other. Low readings indicate slow dissociation, high ones fast dissociation. One may read the kon as the second-order rate constant of association. A high value points to faster complex formation. One may read the t½ as how long it takes for the measured level to halve. A lower t½ goes with fast loss.
